Measurements published in IntAct's records for PubMed 22333915.

B1: Transcription factor NRM1 (Saccharomyces cerevisiae), P53718 (parent)
chain: MSIMKQRLPLGEFSSSKINKLAIANIADASEPRNHGENNVGTVCLPSIKSLMVSPEVYENTKSLPVPLMRSSGGGMACASKSSCQDGISTKTTSRDYSELSKKLQIRLQFAYYKYKTKQTDKNFTDLKSKHSITRPSKVATHSKSEPLTRRRKLVLSQGHYKTPARSKIKTPSSICSHDNTSSFTSFRGVSESSSTTADMNVADTTTPIRNNINTKHSNSHNRTLYQRQETPTSIKAAKSLIHLFTSNQ

Variants of: B1
Settings: with rad53_yeast RAD53, P22216
rad53_yeast RAD53, P22216, sequence (P22216 whole entry): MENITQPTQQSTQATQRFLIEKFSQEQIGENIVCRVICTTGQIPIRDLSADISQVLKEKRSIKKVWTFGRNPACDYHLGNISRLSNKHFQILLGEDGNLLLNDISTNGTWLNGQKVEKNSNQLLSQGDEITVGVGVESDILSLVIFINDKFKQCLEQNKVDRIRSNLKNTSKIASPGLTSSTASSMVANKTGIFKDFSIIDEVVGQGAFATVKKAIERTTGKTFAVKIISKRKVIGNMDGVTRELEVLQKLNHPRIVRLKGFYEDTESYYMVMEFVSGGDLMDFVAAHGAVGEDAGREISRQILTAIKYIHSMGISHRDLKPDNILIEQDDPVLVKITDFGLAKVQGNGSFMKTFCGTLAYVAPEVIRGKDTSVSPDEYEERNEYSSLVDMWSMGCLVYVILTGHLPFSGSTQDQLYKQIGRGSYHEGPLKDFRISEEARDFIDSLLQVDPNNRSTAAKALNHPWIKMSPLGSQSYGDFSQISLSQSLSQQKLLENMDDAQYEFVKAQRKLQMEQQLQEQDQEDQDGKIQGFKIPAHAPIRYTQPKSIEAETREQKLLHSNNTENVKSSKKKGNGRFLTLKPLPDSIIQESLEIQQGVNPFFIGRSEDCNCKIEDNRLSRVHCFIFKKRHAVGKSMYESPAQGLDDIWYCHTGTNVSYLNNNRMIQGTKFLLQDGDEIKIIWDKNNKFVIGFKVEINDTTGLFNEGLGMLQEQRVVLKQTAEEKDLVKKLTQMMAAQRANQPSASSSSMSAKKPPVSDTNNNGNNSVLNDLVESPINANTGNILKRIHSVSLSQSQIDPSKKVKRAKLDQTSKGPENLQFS

| effect of a mutation on the interaction | Variant |
| --- | --- |
| decreasing interaction | MSIMKQRLPLGEFSSSKINKLAIANIADASEPRNHGENNVGAVCLPAIKSLMVSPEVYENTKSLPVPLMRSSGGGMACASKSSCQDGISTKTTSRDYSELSKKLQIRLQFAYYKYKTKQTDKNFTDLKSKHSITRPSKVATHSKAEPLTRRRKLVLSQGHYKTPARSKIKTPSSICSHDNTSSFTSFRGVSESSSTTADMNVADTTTPIRNNINTKHSNSHNRTLYQRQETPTSIKAAKALIHLFTSNQ [T42A;S47A;S145A;S240A] |
